This is an account of results in article PMC5091667 (ACS chemical biology, 2016).

For assay [1], the target named is CD58 (Homo sapiens) (UniProt P19256). To be noted: cited from earlier work.
The target in assay [2] is T1, CD58 protein (purified cell-adhesion domain, domain 1) (UniProt P19256 29-215).
T1 sequence (looked up): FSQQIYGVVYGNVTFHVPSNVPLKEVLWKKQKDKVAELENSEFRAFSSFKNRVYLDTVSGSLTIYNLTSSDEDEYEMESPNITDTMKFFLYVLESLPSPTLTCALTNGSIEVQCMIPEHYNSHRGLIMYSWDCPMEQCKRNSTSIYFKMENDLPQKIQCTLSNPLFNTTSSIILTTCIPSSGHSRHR
Briefly: SPR. On the technique in general: SPR reads the build-up and loss of mass on a sensor chip optically.

Bridges are numbered along the chain shown (N, C = ends). Bounds are passed on as bounds.

By Kd is commonly meant the equilibrium constant for the complex coming apart. Usually koff stands for a measure of how fast the partners let go of each other. A high value points to fast dissociation. By kon is commonly meant a measure of how fast the partners come together. Lower therefore signals slower complex formation.

For the molecule CD2 (from UniProt P06729), the Kd in assay [1] was 10 µM.

B1: SFTI-a (peptide)
peptide: cyclo(CKASAPPSCYDGDD)
modifications: disulfide 1-9
SMILES: C[C@@H]1NC(=O)[C@H](CCCCN)NC(=O)[C@@H]2CSSC[C@H](NC(=O)[C@H](CO)NC(=O)[C@@H]3CCCN3C(=O)[C@@H]3CCCN3C(=O)[C@H](C)NC(=O)[C@H](CO)NC1=O)C(=O)N[C@@H](Cc1ccc(O)cc1)C(=O)N[C@@H](CC(=O)O)C(=O)NCC(=O)N[C@@H](CC(=O)O)C(=O)N[C@@H](CC(=O)O)C(=O)N2
Take B1: in assay [2], the koff is 0.00329 s⁻¹ and the kon amounted to 224 M⁻¹ s⁻¹.
Turning to cyclo(CTKSIPPICFPDGR) (disulfide 1-9 (inferred)) [sunflower trypsin inhibitor SFTI-1], the Kd in assay [2] was greater than 500 µM.
